Assay results taken from patent publication US8003360B2, “Debaryomyces castellii phytase” (Adisseo France S.A.S., priority 2005, dated 2011).

Experiments:
[1] = tested on: D. castellii phytase; experiment: Influence of effectors on phytase activity; format: biochemical, Debaryomyces castellii
[2] = target: Debaryomyces castellii CBS 2923 phytase, native (wild type), SEQ ID No. 2 (Schwanniomyces capriottii, UniProt A2TBB4); experiment: Influence of effectors on the phytase activity; format: biochemical; details: Table 3
Description: (§1) The amount of phosphate released is measured by colorimetery. The visualizing solution, prepared extemporaneously, contains iron sulphate (380 mM, 1 volume) and ammonium heptamolybdate (12 mM, 4 volumes). The absorbance at 700 nm is measured after 30 minutes of visualization at ambient temperature (1 volume of reaction medium+1 volume of visualizing solution), using a UV/visible spectrophotometer (Beckman DU 530).

[3] = tested on: Schwanniomyces occidentalis phytase; details: Segueilha et al., 1992; cited from earlier work
[4] = tested on: Schwanniomyces occidentalis phytase; details: Segueilha et al., 1992; cited from earlier work; remark: listed apart in the source
[5] = target: recombinant Debaryomyces castellii CBS 2923 phytase (recPhyt, expressed in Pichia pastoris), SEQ ID No. 2 (Schwanniomyces capriottii, UniProt A2TBB4); experiment: Hydrolysis of inositol phosphates by the recombinant phytase (chromatogram); format: biochemical; details: InsP3 compared with InsP4, InsP5 and InsP6
Description: (§2) Samples are taken at various times for 6 hours. The reaction is stopped by heating at 100° C. (10 minutes).
(§3) J. Agric. Food Chem. 45, 431-436; Türk, M., Sandberg, A. S., Carlsson, N. G. and Andlid, T. (2000) Inositol hexaphosphate hydrolysis by baker's yeast. Capacity, kinetics, and degradation products. J. Agric. Food Chem. 48, 100-104). […] This system makes it possible to detect the Ins P2 to Ins P6, but only the various isomers of Ins P4 and Ins P5 can be separated.
See Example 1, 7.5 and 7.6.

[6] = Phytase activity as a function of temperature; format: biochemical; details: reaction of phytate hydrolysis
Description: FIG. 2: Activity of the D. castellii phytase as a function of temperature. The activity is measured at pH 4, at 37° C. for 20 minutes.
(§4) The effect of pH on the phytase activity is determined using the following buffer solutions: 200 mM glycine-HCl, pH 2-3.5; 200 mM sodium acetate-acetic acid, pH 3.5-7; and 200 mM tris-HCl, pH 7-9. The reactions are carried out at +37° C. using the phytate as substrate. The optimum temperature is determined by varying the temperature from +30° C. to +80° C. […] After the heat treatment, the mixture is cooled in ice and the phytase activity is determined using the phytate as substrate.
The optimum temperature is determined on the native phytase, by measuring the phytase activity at various temperatures: from 30 to 80° C. (FIG. 2).

[7] = Heat denaturation / heat stability of the phytase; format: physicochemical
Description: FIG. 3: Heat denaturation of the D. castellii phytase. […] The activity is then measured at 37° C. for 20 min.
as §4
It is denatured above 68° C., with a 70% loss of activity after one hour at 70° C. The energy for activation of the denaturation, calculated by means of the Arrhenius representation, is 606 kJ/mol.

[8] = Storage stability of the phytase at -20° C. at various pHs; format: physicochemical
[9] = pH-stability and temperature-stability of the phytase; format: physicochemical; details: for denaturation: 1 hour
Description: FIG. 4: Study of the pH-stability and temperature-stability. The phytase activity of D. castellii is measured after treatment of the extract at various pHs for 1 hour at two temperatures (40° C. or 60° C.). The activity is measured at pH 4.
The phytase activity is measured after incubation of the enzyme at 2 temperatures (40 and 60° C.) in buffers whose pH is between 2 and 8 (FIG. 4). […] On the other hand, in the range 3 to 7, from 80 to 100% of activity is conserved at 40° C. At 60° C., the phytase is more highly denatured at pH 3 and pH 8.

[10] = tested on: Debaryomyces castellii CBS2923 phytase; experiment: Influence of the environment (additives, calcium, buffer molarity) on thermostability of the phytase; format: physicochemical; details: control: 250 mM acetate buffer pH 4, 1 mM calcium chloride, no additive
Description: At the end of treatment, the extract is cooled in water at +4° C. […] Three types of elements are tested: • sugars or sugar alcohol: sucrose, lactose, trehalose, arabinose, glycerol, • the absence of calcium, • the molarity of the buffer. […] At the end of treatment, the extract is cooled in water to +4° C. […] Materials and Methods).

[11] = Specific phytase activity by phytate hydrolysis; format: biochemical; details: native D. castellii phytase, purification steps
Description: The protein content is determined by the Bradford method (Bradford, M. (1976) A rapid and sensitive method for the quantification of microgram quantities of proteins utilizing the principle of protein-dye binding. Anal. Biochem. 72, 248-254). (Biorad Protein Assay Dye Reagent Concentrate, BIORAD 500-0006), the absorbance is measured at 595 nm (Beckman DU 530 UV/visible spectrophotometer). The calibration is carried out with a bovine serum albumin range.
One enzymatic unit (U) is defined as the amount of enzyme which releases one μmol of inorganic phosphate in one minute.
as §1

[12] = Hydrolysis of phytic acid followed over time (HPIC, phosphate assay); format: biochemical; details: after 300 minutes of hydrolysis, pH 4, 0.6 U/ml
Description: as §2, §3
The hydrolysis conditions are described in Materials and Methods. The appearance of the various Ins Pn is monitored over time. After 15 minutes of hydrolysis, Ins P6 has virtually disappeared, 4 major peaks are detected and correspond to Ins (1,2,4,5,6) P5, Ins (1,2,5,6) P4, and peaks of Ins P3, Ins P2 and Ins P1 not identified by this method (FIG. 7). The assignment of the Ins P5 and Ins P4 is confirmed by the addition of authentic inositol samples. After 120 minutes of hydrolysis, the Ins P3 and Ins P1 peaks are predominant. This could reflect a much slower rate of hydrolysis of Ins P3 compared with Ins P4, 5 and 6. […] The enzyme releases all the phosphates. The characterization of the Ins Pn fractions separated by chromatography is carried out by NMR analysis.

[13] = Hydrolysis kinetics of InsP6 followed by NMR; format: biochemical
Description: The time period between two spectra is 23 minutes. After an overnight period, 20 μl of enzyme were added in order to accelerate the reaction. After 16 h, the hydrolysis is complete and the spectrum characteristic of inositol is obtained (top spectrum). These kinetics clearly show the successive appearance of InsP5, of InsP4 and of InsP3.
FIG. 10: Faster kinetics making it possible to follow the complete hydrolysis of InsP6 (600 MHz, 17° C., 500 μl D2O, 3.8 mM of InsP6, pH 4.0, 5 μl of enzyme). A spectrum was recorded every 3 min for 20 h (400 spectra). After 10 hours, the hydrolysis is virtually complete. The spectra plotted correspond to one spectrum out of 10 (30 min between two spectra). Some characteristic signals are annotated.
The sample used to follow the hydrolysis by NMR is prepared from a stock solution of InsP6/phosphate buffer, 96/700 mM in D2O. […] Depending on the desired rate of hydrolysis, a greater or smaller amount of enzyme (1 to 20 μl of the stock solution at 3 U/ml) is added. The kinetics are followed at 17° C. by recording a spectrum (32 scans) every 3 minutes for 20 hours (400 spectra). Using the spectra characteristic of the various inositol phosphates determined previously, their appearance and disappearance can be followed over the entire kinetics.
Depending on the temperature (in this case 17° C.) and on the concentration of enzyme, kinetics can be slow (1 μl of enzyme) and the appearance of the first intermediates readily observed. It is under these conditions that the spectral characteristics of InsP5 were obtained and that the successive appearance of Ins P5, Ins P4 and Ins P3 is clearly seen.
In the presence of 5 μl of enzyme, the formation of Ins P2, Ins P1 and inositol is observed. In the intermediate phase, the complexity of the spectra obtained accounts for the mixture of the Ins Pns. After hours, the hydrolysis is not complete. In the presence of 20 μl of enzyme, complete hydrolysis was obtained in approximately 4 hours. […]

O=C(O)c1cc[c]([Hg][Cl])cc1 [PCMB]
% activity ([1]; effector 3 mM, phytate control = 100): 94.5% | effect on phytase activity ([1]; inhibitors tested, see Table 3): absence of effect | effect on the phytase activity (in words) [2]: not sensitive | inhibition of the activity (in words) [3]: greatly inhibits | effect on phytase activity [4]: greatly inhibits

InsP3
affinity (in words) [5]: weaker affinity

B1: D. castellii phytase: Debaryomyces castellii CBS 2923 phytase of SEQ ID No. 2, a secreted glycosylated 3-phytase (protein, listed as Debaryomyces castellii)
chain: MVSVSKLINNGLLLVGQGAYQDLASPQQASVEQYNIIRFLGGAAPYIQNKGFGISTDIPDQCTLEQVQLFSRHGERYPSTGSGKKYKAVYEKLMSYNGTFKGELAFLNDDYEYFVPDSVYLEKETSPKNSDSIYAGTTDAMKHGIAFRTKYGELFDTNDTLPVFTSNSGRVYQTSQYFARGFMGDDFSNDTVKTNIISEDADMGANSLTPRDGCFNYNENANTAIVDEYTTEYLTKALNRFKASNPGLNITEDDVSNLFGYCAYELNVKGASPMCDIFTNEEFIQYSYSVDLDDYYSNSAGNNMTRVIGSTLLNASLELLNHDKNENKIWLSFTHDTDIEIFHSAIGILIPDEDLPVDYTPFPSPYSHVGITPQGARTIIEKYACGNESYVRYVINDAVIPIKKCSSGPGFSCNLNDYNDYVAERVAGTNYVEQCGNNNASAVTFYWDYETTNYTASLINS
modifications: glycosylated
activation energy calculated according to the Arrhenius representation [6]: 9.08 kcal/mol | loss of activity ([7]; after one hour at 70° C.): 70% | energy for activation of the denaturation (Arrhenius representation) ([7]; heat denaturation): 145 kcal/mol | temperature above which the enzyme is denatured ([7]; heat denaturation study): above 68 °C | temperature up to / below which the enzyme is stable ([7]; heat denaturation study): up to 66 °C | temperature at which the enzyme is stable for one hour ([7]; in 125 mM acetate buffer, pH 4): 66 °C | temperature at which the enzyme is stable for one hour ([7]; in water): 60 °C | denaturation after storage ([8]; 21 days at -20° C., pHs of less than 5): completely denatured | denaturation after storage ([8]; 67 days at -20° C., pHs of between 5 and 7): no denaturation | activity after 1 hour of contact ([9]; pH 2 and pH 8, 40 and 60° C.): complete loss of activity | denaturation ([9]; pH 8, acetate buffer): complete | denaturation ([9]; pH 8, tris HCl buffer): 50% | activity after 1 h at 20° C. [10]: 99 | activity after 1 h at 66.5° C. [10]: 47 | Specific activity [11]: 156 U/mg | amount of phosphate assayed as share of the potential phosphates of the phytate molecule [12]: 100% | time after which hydrolysis of InsP6 is complete ([13]; 1.7 mM InsP6, pH 4.0, 17° C., 1 μl enzyme, 20 μl added after an overnight period): 16 h | time after which hydrolysis of InsP6 is virtually complete ([13]; 3.8 mM InsP6, pH 4.0, 5 μl of enzyme, 17° C.): ~10 h | time to complete hydrolysis of InsP6 ([13]; 20 μl of enzyme, 17° C.): approximately 4 hours
